For test [1], the target named is tissue factor (TF) antigen (UniProt P13726). Kind of test: SPR (ProteOn XPR36), His-tagged Fab captured on anti-penta His, TF as analyte, 1:1 fit.
The target is the same in test [2]. Kind of test: SPR (ProteOn XPR36), His-tagged Fab captured on anti-penta His, TF as analyte; against wild-type D3H44 Fab.
Test [3] has the same target. The test is described as follows: SPR; log ratio against wild-type D3H44 Fab; estimated value.
Test [4] shares this target. Kind of test: SPR (ProteOn XPR36): Fab captured via His tag on anti-penta-His, TF as analyte, 1:1 fit; estimated value, taken from the same Fab with another L chain tag.
Test [5] shares this target. Kind of test: SPR; log ratio against wild-type D3H44 Fab.
Test [6] shares this target. Kind of test: SPR (ProteOn XPR36): Fab captured via His tag on anti-penta-His, TF as analyte, 1:1 fit.
For test [7] the target is unchanged. The test is described as follows: SPR (ProteOn XPR36), Fab captured by His tag on anti-penta-His surface, TF injected as analyte; against wild-type D3H44 Fab.
The target is the same in test [8]. The test is described as follows: SPR (ProteOn XPR36), Fab captured by His tag on anti-penta-His surface, TF injected as analyte, 1:1 fit.
The target is the same in test [9]. The test is described as follows: SPR, Fab captured on anti-penta-His, TF as analyte, 1:1 fit. For orientation: SPR reads the build-up and loss of mass on a sensor chip optically.
Test [10] shares this target. The test is described as follows: vs wild-type D3H44 Fab (KD 0.157 nM); SPR, Fab captured on anti-penta-His, TF as analyte.

The text below walks through data of patent US11306156.

The term Kd denotes the concentration at which binding is half-saturated.

tissue factor (TF) antigen, sequence (P13726 33-251 limits assumed): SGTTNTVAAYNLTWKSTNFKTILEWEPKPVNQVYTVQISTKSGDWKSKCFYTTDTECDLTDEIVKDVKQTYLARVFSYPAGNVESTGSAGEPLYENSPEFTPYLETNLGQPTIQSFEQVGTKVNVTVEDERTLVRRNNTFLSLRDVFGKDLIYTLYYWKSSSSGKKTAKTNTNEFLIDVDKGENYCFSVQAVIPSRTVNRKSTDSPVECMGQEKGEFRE

As for “D3H44 Fab heterodimer, H1 D146G_H172R_Q179K / L1 Q38E_Q124E_Q160E_T180E (H1L1 Fab of LCCA Set # 9064)”, the Kd in test [1] was found to be 0.17 nM. In addition, the Change in median values of KD of h1|1 Fab heterodimer compared to wild type (-(log(KD design)-log(KD wt))) in test [2] was -0.05.

In turn, “D3H44 Fab heterodimer, H1 D146G_Q179K / L1 Q38E_Q124E_Q160E_T180E (H1L1 Fab of LCCA Set # 9065)” yielded a Kd in test [1] of 0.18 nM. In addition, in [2], the Change in median values of KD of h1|1 Fab heterodimer compared to wild type (-(log(KD design)-log(KD wt))) is -0.05.

In turn, “D3H44 Fab heterodimer, H1 H172R_S186R / L1 Q38E_Q124E_Q160E_T180E (H1L1 Fab of LCCA Set # 9075)” gave a dissociation constant (Kd) in [1] of 0.17 nM. In [2], the Change in median values of KD of h1|1 Fab heterodimer compared to wild type (-(log(KD design)-log(KD wt))) is -0.03.

In the case of “D3H44 Fab heterodimer, H1 L124E_L143D_K145M / L1 Q124K_V133G_Q160K_S176R (H1L1 Fab of LCCA Set # 9170, 9171 and 9172)”, the dissociation constant (Kd) in [1] is 0.27 nM. Besides, in test [2], the Change in median values of KD of h1|1 Fab heterodimer compared to wild type (-(log(KD design)-log(KD wt))) was -0.24.

As to “D3H44 Fab heterodimer, H1 L124E_L143E_K145M / L1 Q124K_V133G_Q160K_S176R (H1L1 Fab of LCCA Set # 9248 and 9249)”, the dissociation constant Kd in test [1] came to 0.28 nM. Moreover, the Change in median values of KD of h1|1 Fab heterodimer compared to wild type (-(log(KD design)-log(KD wt))) in [2] was -0.26.

For the substance “D3H44 Fab heterodimer, H1 L124R_S186R / L1 Q124E_V133G_S176D_T178D_T180E (H1L1 Fab of LCCA Set # 9513)”, the equilibrium dissociation constant (Kd) in test [1] came to 0.26 nM. The Change in median values of KD of h1|1 Fab heterodimer compared to wild type (-(log(KD design)-log(KD wt))) in test [2] is -0.21.

On to “D3H44 Fab heterodimer, H1 L143K_D146G / L1 Q124E_V133D (H1L1 Fab of LCCA Set # 9734)”, for which, in [1], the Kd was found to be 0.26 nM. Besides, the Change in median values of KD of h1|1 Fab heterodimer compared to wild type (-(log(KD design)-log(KD wt))) in test [2] was -0.22.

For the substance “D3H44 Fab heterodimer, H L143D_K145T_Q179E / L T178R (H1L1 of LCCA sets 9579 and 9575)”, the Change in KD with respect to wild type (-(log(KD design) - log(KD wt))) in test [3] and in test [5] was -0.25 throughout. Moreover, the Kd in test [4] and in test [6] was 0.28 nM throughout.

As for “D3H44 Fab heterodimer, H L143E_K145T_Q179D / L Q124R_Q160K_T178R (H1L1 of LCCA set 9623)”, the Change in KD with respect to wild type (-(log(KD design) - log(KD wt))) in test [3] was 0.39. Also, in [4], the Kd was 0.06 nM.

On to “D3H44 Fab heterodimer, H L143E_K145T_Q179D / L Q124R_T178R (H1L1 of LCCA sets 9635 and 9632)”, for which the Change in KD with respect to wild type (-(log(KD design) - log(KD wt))) in test [3] and in [5] was 0.04 each time. In addition, the dissociation constant (Kd) in test [4] and in test [6] was 0.14 nM in each case.

On to “D3H44 Fab heterodimer, H L143E_K145T_Q179D / L T178R (H1L1 of LCCA set 9641)”, for which the Change in KD with respect to wild type (-(log(KD design) - log(KD wt))) in test [3] is 0.17. Also, the Kd in test [4] was 0.11 nM.

For “D3H44 Fab heterodimer, H L143E_K145T_Q179E / L Q124K_T178R (H1L1 of LCCA sets 9645 and 9648)”, the Change in KD with respect to wild type (-(log(KD design) - log(KD wt))) in test [3] and in test [5] was 0.05 throughout. Besides, the Kd in [4] and in [6] was 0.14 nM each time.

In the case of “D3H44 Fab heterodimer, H L143E_K145T_Q179E / L Q124R_T178K (H1L1 of LCCA set 9657)”, in test [3], the Change in KD with respect to wild type (-(log(KD design) - log(KD wt))) is -0.08. The dissociation constant (Kd) in test [4] is 0.19 nM.

Take “D3H44 Fab heterodimer, H L143E_K145T_Q179E / L Q124R_T178R (H1L1 of LCCA sets 9679 and 9663)”: the Change in KD with respect to wild type (-(log(KD design) - log(KD wt))) in test [3] and in test [5] was -0.23 throughout. The equilibrium dissociation constant (Kd) in test [4] and in [6] was 0.27 nM each time.

In the case of “D3H44 Fab heterodimer, H L143E_K145T_Q179E / L T178R (H1L1 of LCCA sets 9683 and 9684)”, the Change in KD with respect to wild type (-(log(KD design) - log(KD wt))) in test [3] and in [5] was -0.28 throughout. Besides, the Kd in test [4] and in [6] was 0.3 nM in each case.

On to “D3H44 H1L1 Fab heterodimer of LCCA Set # 9103 (H1 L124A_S186K, L1 Q124E_V133W_T180E)”, for which, in test [7], the change in median KD compared to wild type, -(log(KD design)-log(KD wt)) was 0.02 log. The Kd in test [8] came to 0.15 nM.

As to “D3H44 H1L1 Fab heterodimer of LCCA Set # 9116 (H1 L124E_A139W, L1 F116A_V133G_L135V_S176R)”, the change in median KD compared to wild type, -(log(KD design)-log(KD wt)) in test [7] is -0.02 log. In [8], this substance came in with a dissociation constant Kd of 0.16 nM.

Take “D3H44 H1L1 Fab heterodimer of LCCA Set # 9122 (H1 L124E_H172T, L1 V133G_S174R_S176R)”: in test [7], the change in median KD compared to wild type, -(log(KD design)-log(KD wt)) is 0.1 log. In test [8], this substance yielded a dissociation constant (Kd) of 0.13 nM.

“D3H44 H1L1 Fab heterodimer of LCCA Set # 9575 (H1 L143D_K145T_Q179E, L1 T178R)”: in [7], the change in median KD compared to wild type, -(log(KD design)-log(KD wt)) was -0.25 log. In test [8], this substance displayed a dissociation constant (Kd) of 0.28 nM.

Regarding “D3H44 H1L1 Fab heterodimer of LCCA Sets # 6054, 9338 and 9339 (H1 L124R, L1 V133G_S176D_T178D)”, the change in median KD compared to wild type, -(log(KD design)-log(KD wt)) in test [7] was -0.18 log. Moreover, the Kd in test [8] was found to be 0.24 nM.

For the substance “D3H44 H1L1 Fab heterodimer of LCCA Sets # 9092, 9091 and 9090 (H1 L124A_L143F_Q179K, L1 Q124E_V133W_S176T_T178E_T180E)”, the change in median KD compared to wild type, -(log(KD design)-log(KD wt)) in [7] is -0.02 log. Also, the Kd in test [8] came to 0.16 nM.

As for “D3H44 H1L1 Fab heterodimer of LCCA Sets # 9486, 9487, 9488 and 9489 (H1 L124R_S186K, L1 V133G_S176D_T178E_T180E)”, in test [7], the change in median KD compared to wild type, -(log(KD design)-log(KD wt)) is -0.17 log. The substance also registered a Kd in [8] of 0.23 nM.

Regarding “D3H44 H1L1 Fab heterodimer of LCCA Sets # 9743 and 9744 (H1 L143R, L1 Q124E_V133E_S176L)”, the change in median KD compared to wild type, -(log(KD design)-log(KD wt)) in test [7] was -0.25 log. Moreover, the Kd in test [8] is 0.28 nM.

In test [9], “H1L1 Fab heterodimer of LCCA sets 9755 and 9756 (D3H44 Fab, H1 Q179K, L1 Q124E_L135W_Q160E_T180E)” returned a dissociation constant Kd of 0.28 nM. The change in median KD compared to wild type, -(log(KD design)-log(KD wt)) in test [10] is -0.26.

In test [9], “H1L1 Fab heterodimer of LCCA sets 9757 and 9758 (D3H44 Fab, H1 Q179K, L1 Q124E_Q160E_T178E)” had a dissociation constant (Kd) of 0.29 nM. Moreover, the change in median KD compared to wild type, -(log(KD design)-log(KD wt)) in [10] is -0.27.

In [9], “H1L1 Fab heterodimer of LCCA sets 9869, 9871, 9874, 9876 and 9879 (D3H44 Fab, H1 S186R, L1 Q124E_Q160E_T180E)” displayed a Kd of 0.05 nM. The substance also had a change in median KD compared to wild type, -(log(KD design)-log(KD wt)) in test [10] of 0.51.
